Target: T1, GST fusion protein wherein the extracellular domain of mouse erbB3 is fused to GST (mouse, UniProt Q61526 20-641)
T1 construct: also called merbB3-GST; merbB3; not shown: glutathione S-transferase (GST)
Assay: binding ELISA, GST fusion captured by anti-GST
Experimental: anti-Glutathione-Transferase-Schistsoma-japonicum (Goat) (manufactured by Rockland Immunochemicals Inc., ca. No. 16979) (hereinbelow, described as “anti-GST”) prepared at 1 μg/mL by using a 50 mM carbonate buffer (pH 9) (hereinbelow, described as a “coating buffer”) was added to Maxisorp plate (NUNC; ca. No. 442404) at 50 μL/well and immobilized by incubation at 37° C. for an hour (or 4° C., ON).
After the buffer was discarded, a blocking reagent (SuperBlock® Blocking Buffer, manufactured by PIERCE) was added to the respective wells at 250 μL to 300 μL/well, followed by incubation at room temperature for 5 to 10 minutes for blocking After the blocking reagent was discarded, the herbB3-GST fusion protein, the merbB3-GST fusion protein, the hD1/mD234 fusion protein, the hD12/mD34 fusion protein, and the hD123/mD4 fusion protein which were diluted at 5 μg/mL with Tris-buffered saline (hereinbelow, described as an “assay diluent”) containing 10% Block Ace® (manufactured by Dainippon Sumitomo Pharma Co., Ltd.) and 0.1% Tween 20 were added respectively to the plates of the respective antigens at 50 μL/well, and immobilized by incubation at room temperature for an hour.
An absorbance at a wavelength of 450 nm (reference wavelength of 570 nm) was measured using a microplate reader (MTP-300; manufactured by CORONA […] Co., Ltd.).

T1 sequence (Q61526 20-641): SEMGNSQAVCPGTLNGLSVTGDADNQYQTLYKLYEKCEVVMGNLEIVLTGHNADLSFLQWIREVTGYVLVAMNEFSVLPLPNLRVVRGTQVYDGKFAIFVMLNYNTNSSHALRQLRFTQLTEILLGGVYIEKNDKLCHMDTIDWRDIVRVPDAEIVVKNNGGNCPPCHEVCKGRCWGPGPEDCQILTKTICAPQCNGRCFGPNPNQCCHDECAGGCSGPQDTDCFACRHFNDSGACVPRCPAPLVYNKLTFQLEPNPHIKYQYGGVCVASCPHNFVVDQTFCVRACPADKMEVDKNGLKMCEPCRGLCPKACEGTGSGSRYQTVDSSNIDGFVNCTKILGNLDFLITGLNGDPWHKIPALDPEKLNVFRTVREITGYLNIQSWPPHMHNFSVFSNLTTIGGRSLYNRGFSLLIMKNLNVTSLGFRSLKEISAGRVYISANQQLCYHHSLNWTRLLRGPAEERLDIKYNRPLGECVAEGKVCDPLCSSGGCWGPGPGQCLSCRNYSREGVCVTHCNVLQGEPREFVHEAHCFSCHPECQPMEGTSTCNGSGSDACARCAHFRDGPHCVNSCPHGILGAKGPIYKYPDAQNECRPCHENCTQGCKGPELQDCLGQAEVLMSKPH

B1: anti-human erbB3 monoclonal antibody 12511 (antibody, V domains shown)
VH: QIQLQQSGPELVNPGASVKISCKPSGYTFTDYYINWVKQRPGQGLEWIGWIHPGGGYTKYNEKFRGKATVTVDTSANTVYMQLSSLTSDDSAVYFCARRDYGDYGFAYWGQGTLVTVSA
VL: DIVLTQSPASLAVSLGQRATISCRVSESVDSYGNSFMHWYQQKPGQPPKLLIYRASNLESGIPDRFSGSVSRTDFTLTINPVEPDDVATYYCQQTNEDPPTFGGGTKLEIK
binding result: binds
